Residue numbers refer to the chain shown, from its start.

Consider four molecules from publication PMC8809517, “Cofactor-independent RNA editing by a synthetic S-type PPR protein”.

Test in all cases: high-throughput RNA pulldown from lysate on Ni-NTA beads; HRP: 50 mM Tris pH 8, 150 mM NaCl, 1 mM beta-mercaptoethanol, 50 ug/ml BSA, 3 ug/ml yeast RNA, 0.5% heparin; ITC and FP: Tris pH 8, 200 mM KCl, 5% glycerol; MST: 50 mM Tris pH 8, 200 mM NaCl, 1 mM DTT, BSA, heparin, 0.05% Tween 20
What all share (conditions): tags: N-terminal His-eGFP

The target in data set [1] is T1, GFP-9S library array, motif 4 ND N98L;D124C (synthetic construct, N98L;D124C).
T1 chain: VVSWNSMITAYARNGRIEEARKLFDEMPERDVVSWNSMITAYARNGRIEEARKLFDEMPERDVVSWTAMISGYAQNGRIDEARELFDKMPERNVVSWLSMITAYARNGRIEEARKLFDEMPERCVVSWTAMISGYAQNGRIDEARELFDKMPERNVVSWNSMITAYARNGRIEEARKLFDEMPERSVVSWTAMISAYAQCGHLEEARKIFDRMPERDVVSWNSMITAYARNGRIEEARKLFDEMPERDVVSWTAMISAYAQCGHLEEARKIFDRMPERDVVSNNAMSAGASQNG

In data set [2] the target is T2, GFP-9S library array, motif 4 ND N98Q;D124I (synthetic construct, N98Q;D124I).
T2 chain: T1 chain with L98Q, C124I

In data set [3] the target is T3, GFP-9S library array, motif 4 ND N98Q;D124N (synthetic construct, N98Q;D124N).
T3 chain: T1 chain with L98Q, C124N

Data set [4] has as its target T4, GFP-9S library array, motif 4 ND N98E;D124M (synthetic construct, N98E;D124M).
T4 chain: T1 chain with L98E, C124M

Data set [5] deals with T5, GFP-9S library array, motif 4 ND N98T;D124W (synthetic construct, N98T;D124W).
T5 chain: T1 chain with L98T, C124W

Consider AUUAGACGUGA (ssRNA) [Cy5-rpoA-G], for which the Kd – broadly, the concentration at which binding is half-saturated – amounted to 70.4 nM in data set [1] (label: 5' Cy5); 102 nM in data set [2] (label: 5' Cy5); 68.6 nM in data set [3] (label: 5' Cy5); 136 nM in data set [4] (label: 5' Cy5); 71.6 nM in data set [5] (label: 5' Cy5).

On to AUUAAACGUGA (ssRNA) [IR-rpoA-A], for which the Kd in data set [1] (label: 5' IRDye 800CW) came to 98.7 nM; in data set [2] (label: 5' IRDye 800CW), 315 nM; in data set [3] (label: 5' IRDye 800CW) it was 118 nM; in data set [4] (label: 5' IRDye 800CW) it was 360 nM; in data set [5] (label: 5' IRDye 800CW), 125 nM.

AUUAUACGUGA (ssRNA) [IR-rpoA-U]: the Kd in data set [1] (label: 5' IRDye 800CW) turned out to be 60.2 nM; in data set [2] (label: 5' IRDye 800CW), 344 nM; in data set [3] (label: 5' IRDye 800CW), 99.2 nM; in data set [4] (label: 5' IRDye 800CW) it was 206 nM; in data set [5] (label: 5' IRDye 800CW), 150 nM.

With AUUACACGUGA (ssRNA) [Cy5-rpoA], the Kd in data set [1] (label: 5' Cy5) is 89 nM; in data set [2] (label: 5' Cy5), 142 nM; in data set [3] (label: 5' Cy5), 94.7 nM; in data set [4] (label: 5' Cy5) it was 105 nM; in data set [5] (label: 5' Cy5), 81.5 nM.
